Data: patent publication US20220204643A1 (published 2022)

What was measured:
[1] = target: T1, family with sequence similarity 177 member A1, transcript variant 2 (human, UniProt Q8N128 1-213)
T1 construct: HuProt array protein, full-length recombinant from yeast; also called FAM177A1
T1 sequence: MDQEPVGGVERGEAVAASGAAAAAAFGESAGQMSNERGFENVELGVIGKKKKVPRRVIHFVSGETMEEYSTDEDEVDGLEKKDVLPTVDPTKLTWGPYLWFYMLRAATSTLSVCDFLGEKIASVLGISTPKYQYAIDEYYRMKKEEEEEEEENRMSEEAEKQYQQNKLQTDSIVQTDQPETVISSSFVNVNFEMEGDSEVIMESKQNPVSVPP

[2] = target: T2, syntaxin 1A, transcript variant 1 (human, UniProt Q16623 1-288); experiment: protein array
T2 construct: on protein array; also called STX1A
T2 sequence (Q16623 whole entry, change not shown): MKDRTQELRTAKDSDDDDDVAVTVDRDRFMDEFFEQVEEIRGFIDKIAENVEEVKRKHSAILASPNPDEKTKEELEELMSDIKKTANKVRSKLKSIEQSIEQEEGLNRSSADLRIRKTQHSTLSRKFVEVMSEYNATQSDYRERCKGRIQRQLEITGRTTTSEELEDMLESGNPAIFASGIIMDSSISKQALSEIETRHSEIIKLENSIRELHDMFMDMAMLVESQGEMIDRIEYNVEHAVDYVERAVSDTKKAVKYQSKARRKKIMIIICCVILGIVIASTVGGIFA

[3] = target: T3, geminin DNA replication inhibitor, transcript variant 1 (human, UniProt O75496 1-209); experiment: protein array
T3 construct: on protein array; also called GMNN
T3 sequence: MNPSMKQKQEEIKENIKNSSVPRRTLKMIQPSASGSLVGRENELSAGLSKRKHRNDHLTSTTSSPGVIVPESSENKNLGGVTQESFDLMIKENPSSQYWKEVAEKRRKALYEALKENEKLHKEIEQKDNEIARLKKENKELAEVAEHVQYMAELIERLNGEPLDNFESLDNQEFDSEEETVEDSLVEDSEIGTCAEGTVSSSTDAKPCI

DEAD-box helicase 18 = target: T4, DEAD-box helicase 18 (human, UniProt Q9NVP1 1-670); experiment: protein array
T4 construct: on protein array; also called DDX18
T4 sequence: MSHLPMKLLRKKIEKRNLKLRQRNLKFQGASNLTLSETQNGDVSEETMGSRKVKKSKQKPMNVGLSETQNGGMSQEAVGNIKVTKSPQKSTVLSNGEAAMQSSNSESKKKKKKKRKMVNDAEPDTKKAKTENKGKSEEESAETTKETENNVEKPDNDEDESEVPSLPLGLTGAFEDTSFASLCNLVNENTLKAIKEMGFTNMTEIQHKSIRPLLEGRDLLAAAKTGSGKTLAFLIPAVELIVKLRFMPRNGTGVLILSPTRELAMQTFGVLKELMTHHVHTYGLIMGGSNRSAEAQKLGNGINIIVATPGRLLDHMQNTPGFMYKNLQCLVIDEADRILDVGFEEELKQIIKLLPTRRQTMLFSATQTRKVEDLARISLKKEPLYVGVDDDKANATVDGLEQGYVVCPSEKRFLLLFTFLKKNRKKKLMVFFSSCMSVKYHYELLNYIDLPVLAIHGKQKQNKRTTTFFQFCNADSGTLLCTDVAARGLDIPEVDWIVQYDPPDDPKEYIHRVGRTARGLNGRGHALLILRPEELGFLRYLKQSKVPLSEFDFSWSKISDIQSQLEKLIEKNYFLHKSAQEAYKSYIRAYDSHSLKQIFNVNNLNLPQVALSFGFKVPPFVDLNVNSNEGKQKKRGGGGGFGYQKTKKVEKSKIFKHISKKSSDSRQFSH

[4] = target: T5, checkpoint kinase 2, transcript variant 3 (human)
T5 construct: HuProt array protein, full-length recombinant from yeast; also called CHEK2
T5 chain: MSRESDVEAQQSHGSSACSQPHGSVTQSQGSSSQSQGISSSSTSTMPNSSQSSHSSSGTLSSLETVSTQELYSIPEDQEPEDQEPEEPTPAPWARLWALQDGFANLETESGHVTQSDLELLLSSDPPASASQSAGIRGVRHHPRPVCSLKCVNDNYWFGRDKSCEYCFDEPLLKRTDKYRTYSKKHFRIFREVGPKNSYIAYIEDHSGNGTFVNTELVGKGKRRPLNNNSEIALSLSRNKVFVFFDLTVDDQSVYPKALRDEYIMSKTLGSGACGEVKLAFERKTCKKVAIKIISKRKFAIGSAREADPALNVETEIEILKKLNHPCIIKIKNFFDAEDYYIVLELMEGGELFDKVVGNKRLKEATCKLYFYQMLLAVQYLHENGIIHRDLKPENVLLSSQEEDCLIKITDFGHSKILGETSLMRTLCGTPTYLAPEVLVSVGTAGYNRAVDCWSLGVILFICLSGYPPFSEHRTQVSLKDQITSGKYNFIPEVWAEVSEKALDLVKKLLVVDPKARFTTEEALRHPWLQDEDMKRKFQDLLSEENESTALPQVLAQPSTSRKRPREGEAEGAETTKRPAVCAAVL

annexin A1 = target: T6, annexin A1 (human, UniProt P04083 2-346)
T6 construct: HuProt array protein, full-length recombinant from yeast; printed 'annexin Al'; also called ANXA1
T6 sequence: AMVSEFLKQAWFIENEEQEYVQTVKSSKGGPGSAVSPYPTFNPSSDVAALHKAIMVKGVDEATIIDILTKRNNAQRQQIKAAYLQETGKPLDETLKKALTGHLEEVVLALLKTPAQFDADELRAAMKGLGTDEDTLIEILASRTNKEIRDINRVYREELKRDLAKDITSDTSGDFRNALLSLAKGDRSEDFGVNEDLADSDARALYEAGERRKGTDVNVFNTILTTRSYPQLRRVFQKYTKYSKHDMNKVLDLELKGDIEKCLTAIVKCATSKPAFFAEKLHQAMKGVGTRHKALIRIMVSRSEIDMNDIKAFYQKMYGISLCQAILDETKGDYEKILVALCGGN

[5] = target: T7, ankyrin repeat domain 53, transcript variant 2 (human)
T7 construct: HuProt array protein, full-length recombinant from yeast; also called ANKRD53
T7 chain: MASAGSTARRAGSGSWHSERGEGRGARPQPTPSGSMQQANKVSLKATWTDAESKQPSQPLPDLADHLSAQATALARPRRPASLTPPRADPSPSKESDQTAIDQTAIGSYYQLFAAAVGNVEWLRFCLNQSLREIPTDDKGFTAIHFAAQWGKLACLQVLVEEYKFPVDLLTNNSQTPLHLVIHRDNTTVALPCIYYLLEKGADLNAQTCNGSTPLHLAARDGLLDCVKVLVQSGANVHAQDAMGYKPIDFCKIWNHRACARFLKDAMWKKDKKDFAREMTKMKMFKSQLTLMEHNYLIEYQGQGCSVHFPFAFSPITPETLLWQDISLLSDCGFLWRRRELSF

FMR1 autosomal homolog 2 = target: T8, FMR1 autosomal homolog 2 (human, UniProt P51116 1-673)
T8 construct: HuProt array protein, full-length recombinant from yeast; also called FXR2
T8 sequence (P51116 whole entry Q252H): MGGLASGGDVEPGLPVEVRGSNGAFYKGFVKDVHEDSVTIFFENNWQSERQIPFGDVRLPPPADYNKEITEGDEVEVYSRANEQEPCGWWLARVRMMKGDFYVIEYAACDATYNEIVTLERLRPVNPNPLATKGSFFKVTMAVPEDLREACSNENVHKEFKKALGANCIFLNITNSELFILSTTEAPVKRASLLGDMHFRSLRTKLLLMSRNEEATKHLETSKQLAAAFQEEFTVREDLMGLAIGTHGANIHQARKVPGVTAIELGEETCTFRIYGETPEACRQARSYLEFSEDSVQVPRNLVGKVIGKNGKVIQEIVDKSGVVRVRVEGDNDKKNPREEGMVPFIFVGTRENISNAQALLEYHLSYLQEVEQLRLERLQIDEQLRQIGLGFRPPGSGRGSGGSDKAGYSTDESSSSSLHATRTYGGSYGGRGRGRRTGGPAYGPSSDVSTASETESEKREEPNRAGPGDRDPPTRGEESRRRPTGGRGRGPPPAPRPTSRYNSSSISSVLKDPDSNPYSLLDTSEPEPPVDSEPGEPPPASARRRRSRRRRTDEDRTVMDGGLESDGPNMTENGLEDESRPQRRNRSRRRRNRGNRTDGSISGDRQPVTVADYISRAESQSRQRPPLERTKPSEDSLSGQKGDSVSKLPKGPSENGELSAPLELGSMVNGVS

[6] = target: T9, tripartite motif containing 35, transcript variant 1 (human, UniProt Q9UPQ4 1-493)
T9 construct: HuProt array protein, full-length recombinant from yeast; also called TRIM35
T9 sequence: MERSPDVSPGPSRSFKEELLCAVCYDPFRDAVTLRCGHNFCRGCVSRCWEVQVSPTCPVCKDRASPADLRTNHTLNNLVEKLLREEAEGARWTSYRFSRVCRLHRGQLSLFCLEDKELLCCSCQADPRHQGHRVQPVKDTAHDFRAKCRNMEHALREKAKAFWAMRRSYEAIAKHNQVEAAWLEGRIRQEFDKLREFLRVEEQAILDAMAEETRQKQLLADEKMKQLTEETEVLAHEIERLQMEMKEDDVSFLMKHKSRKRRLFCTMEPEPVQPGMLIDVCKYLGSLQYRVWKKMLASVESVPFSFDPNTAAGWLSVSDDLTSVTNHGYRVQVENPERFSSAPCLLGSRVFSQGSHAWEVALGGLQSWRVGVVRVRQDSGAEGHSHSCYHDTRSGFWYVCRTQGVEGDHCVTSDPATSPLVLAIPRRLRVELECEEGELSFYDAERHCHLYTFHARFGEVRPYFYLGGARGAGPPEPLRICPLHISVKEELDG

[7] = target: T10, Killer cell lectin like receptor g2 (human, UniProt A4D1S0 1-409)
T10 construct: HuProt array protein, full-length recombinant from yeast; also called KLRG2
T10 sequence: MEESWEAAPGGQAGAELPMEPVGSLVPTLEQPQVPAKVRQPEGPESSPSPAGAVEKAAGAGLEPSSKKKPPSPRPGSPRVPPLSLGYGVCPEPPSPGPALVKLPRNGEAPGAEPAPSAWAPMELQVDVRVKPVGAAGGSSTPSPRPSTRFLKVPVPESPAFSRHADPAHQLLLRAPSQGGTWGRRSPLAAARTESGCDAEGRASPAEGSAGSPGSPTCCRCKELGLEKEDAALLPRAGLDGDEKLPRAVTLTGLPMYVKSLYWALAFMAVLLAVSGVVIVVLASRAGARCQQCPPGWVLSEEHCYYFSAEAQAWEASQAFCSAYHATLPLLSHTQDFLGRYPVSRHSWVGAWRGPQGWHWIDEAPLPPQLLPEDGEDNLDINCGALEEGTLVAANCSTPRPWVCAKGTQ

[8] = target: T11, methyltransferase like 21C (human, UniProt Q5VZV1 1-264)
T11 construct: HuProt array protein, full-length recombinant from yeast; also called METTL21C
T11 sequence (Q5VZV1 whole entry): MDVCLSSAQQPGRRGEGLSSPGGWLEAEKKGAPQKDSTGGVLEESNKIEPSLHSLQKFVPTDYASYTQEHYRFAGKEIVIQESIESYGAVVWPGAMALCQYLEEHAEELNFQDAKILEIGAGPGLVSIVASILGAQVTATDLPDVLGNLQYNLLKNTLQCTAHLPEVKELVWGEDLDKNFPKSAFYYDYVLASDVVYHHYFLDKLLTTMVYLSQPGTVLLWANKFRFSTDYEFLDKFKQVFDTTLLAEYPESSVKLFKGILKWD

B1: TLUA1016 (antibody, V domains shown)
VH: EVQLLESGGALVQPGGSLRLSCAVSGLTFNRFAMTWVRQAPGKGLEWVSHIGGSGGYTYYADSVKGRFTISRDNSKNTLYLQMNSLRAEDTAVYHCVKLKGIGAMWTYAMDVWGQGTTVTVSS
VL: QSVLTQPPSVSGAPGQRVTIPCTGSSSNLGAGYAVHWYQQLPATTPKLLIYANSSRPSGVPDRFSGSRSDTSASLAITGLQAEDEADYYCQSYDSSLSGYVFGTGTWVTVLS
notes: detected with anti-human IgG Fc
binding result [1]: binds

B2: TBRE1027 (antibody, V domains shown)
VH: EVQLLESGGGLVQPGGSLRLSCAASGFTFSSYAMSWVRQAPGKGLEWVSTISGSGHSTYYADSVKGRFTISRDNSKNTLYLQMNSLRAEDTAVYYCAKSTLGGGFDFWGQGTLVTVSS
VL: DIQMTQSPFSLSASVGDRVTITCRASQSISSYLNWYQQKPGKAPKLLIYAASSLQSGVPSRFSGSGSGTDFTLTISSLQPEDFATYYCHQSYSTSLTFGGGTKVEIKR
notes: VH/VL only
binding result [2]: binds | binding result [3]: binds | binding result (DEAD-box helicase 18): binds

B3: TKIC1013 (antibody, V domains shown)
VH: EVQLVESGGGLVQPGGSLRLSCAASGFTFNNYWMHWVRQAPGKGLVWVSRISSDGSTTASADSVKGRFTISRDNAKNTLFLQMNSLRAEDTAVYYCAREGAPDDYGDSGTAFDIWGQGTTVTVSS
VL: DIQLTQSPSFLSASVGDRVTITCRASQDISSFLAWYQQKPGKAPDLLIYAASTLQSGVPSRFSGSGSGTEFTLTISSLQPEDFAAYYCQHLTSFPYTFGQGTKLEIKR
notes: as for B1
binding result [4]: binds

B4: TLUA1004 (antibody, V domains shown)
VH: EVQLVESGGGLVQTGGSLRLSCSASGFTFNNYWMHWVRQAPGKGLLWLSRINTDGSRGHYDDSVQGRFTISRDNAKQTVYLQMDGLRAEDTAVYFCARDGYDFRAFDHWGQGVLVTVSS
VL: DIQMTQSPSSLSASVGDKVTMTCRASQFISVYVNWYQQKPGKAPKLLIYTASSLESGVSSRFSGGGSGTDFTLTIRSLQPEDFAIYYCQQTYSTPWTFGPGTRVEIKR
notes: as for B1
binding result (annexin A1): binds

B5: TKIC1019 (antibody, V domains shown)
VH: QLQLQESGPGLVKPSETLSLTCTVSDVSIISSFYYWGWIRQPPGKGLEWIGSVYYSGSTSYNPSLKSRVTISADTSKAHFSLNLRSVTAADTAVYYCVSRGPLGGAAAGPDYWGQGALVIVSS
VL: VSSELTQDPAVSVALGQTVRITCQGDSLRSYYATWYQQKPGQAPLLVIFDKDKRPSGIPDRFSGSSSGNTASLTITGAQPEDEAVYYCNSRDSSAHDHLLFGGGTTLTVLG
notes: as for B1
binding result [5]: binds

B6: TLUA1001 (antibody, V domains shown)
VH: PLQLQESGPGLVKPSETLSLTCSVSGGSIRSSAPFWGWIRQPPGKGLEWIGNIYYNGDTSYSPSLENRVTLFVDTSKNQFSLNLTSVTAADTAVYYCGRIMTPSIDLWGQGKLVTVSS
VL: EIVLTQSPGTLSLSPGERATLSCRASQSISSTYLVWYQQKPGQAPRLLIYAASYRATGIPDRFSGSGSGTDFILTISRLEPEDFAVYYCQQYGSSLTFGGGTKVEIKR
notes: as for B1
binding result (FMR1 autosomal homolog 2): binds | binding result [6]: binds | binding result [7]: binds

B7: TLUS1003 (antibody, V domains shown)
VH: QVHLVQSGSEFKKPGASVKISCKTSGYTFTNYAMNWVRQAPGQGLEWVGWINTVTGIPGYAQGFTGRFIISLDTSGRTSYLQINSLQAEDTAVYYCARSGGFGWSRDLDYWGQGTLVTVSS
VL: DIVLTQSPLSLPVTPGEPASISCRSSQSLLHSNGVYYLDWYLLKPGQSPQLVIYMGSSRASGVPDRFSGSGSGTDFRLKISRVEAEDVGIYYCMQALQTPWTFGQGTKVEIKR
notes: as for B1
binding result [8]: binds
